Measurements published in paper PMC11423328, “Catalytic Redundancies and Conformational Plasticity Drives Selectivity and Promiscuity in Quorum Quenching Lactonases” (JACS Au, 2024).

B1: GcL (Parageobacillus caldoxylosilyticus NBRC 107762; Y222F) (protein)
chain: MANVIKARPKLYVMDNGRMRMDKNWMIAMHNPATIHNPNAQTEFVEFPIYTVLIDHPEGKILFDTSCNPNSMGPQGRWAESTQQMFPWTATEECYLHNRLEQLKVRPEDIRYVVASHLHLDHAGCLEMFTNATIIVHEDEFNGALQCYARNQKEGAYIWADIDAWIKNNLQWRTVKRHEDNILLAEGVKVLNFGSGHAWGMLGLHVELPETGGIILASDAIFTAESYGPPIKPPGIIYDSLGYMNTVERIRRIAQETKSQVWFGHDAEQFKKFRKSTEGYYE
notes: expressed in E. coli BL21(DE3)-pGro7/GroEL with CoCl2; bimetallic Fe/Co centre; dimer
B2: GcL (Parageobacillus caldoxylosilyticus NBRC 107762; A156S) (protein)
chain: MANVIKARPKLYVMDNGRMRMDKNWMIAMHNPATIHNPNAQTEFVEFPIYTVLIDHPEGKILFDTSCNPNSMGPQGRWAESTQQMFPWTATEECYLHNRLEQLKVRPEDIRYVVASHLHLDHAGCLEMFTNATIIVHEDEFNGALQCYARNQKEGSYIWADIDAWIKNNLQWRTVKRHEDNILLAEGVKVLNFGSGHAWGMLGLHVELPETGGIILASDAIYTAESYGPPIKPPGIIYDSLGYMNTVERIRRIAQETKSQVWFGHDAEQFKKFRKSTEGYYE
notes: as for B1
B3: GcL (Parageobacillus caldoxylosilyticus NBRC 107762; G155P) (protein)
chain: MANVIKARPKLYVMDNGRMRMDKNWMIAMHNPATIHNPNAQTEFVEFPIYTVLIDHPEGKILFDTSCNPNSMGPQGRWAESTQQMFPWTATEECYLHNRLEQLKVRPEDIRYVVASHLHLDHAGCLEMFTNATIIVHEDEFNGALQCYARNQKEPAYIWADIDAWIKNNLQWRTVKRHEDNILLAEGVKVLNFGSGHAWGMLGLHVELPETGGIILASDAIYTAESYGPPIKPPGIIYDSLGYMNTVERIRRIAQETKSQVWFGHDAEQFKKFRKSTEGYYE
notes: as for B1
B4: GcL (Parageobacillus caldoxylosilyticus NBRC 107762; D121N) (protein)
chain: MANVIKARPKLYVMDNGRMRMDKNWMIAMHNPATIHNPNAQTEFVEFPIYTVLIDHPEGKILFDTSCNPNSMGPQGRWAESTQQMFPWTATEECYLHNRLEQLKVRPEDIRYVVASHLHLNHAGCLEMFTNATIIVHEDEFNGALQCYARNQKEGAYIWADIDAWIKNNLQWRTVKRHEDNILLAEGVKVLNFGSGHAWGMLGLHVELPETGGIILASDAIYTAESYGPPIKPPGIIYDSLGYMNTVERIRRIAQETKSQVWFGHDAEQFKKFRKSTEGYYE
notes: as for B1
B5: GcL (Parageobacillus caldoxylosilyticus NBRC 107762; I236M) (protein)
chain: MANVIKARPKLYVMDNGRMRMDKNWMIAMHNPATIHNPNAQTEFVEFPIYTVLIDHPEGKILFDTSCNPNSMGPQGRWAESTQQMFPWTATEECYLHNRLEQLKVRPEDIRYVVASHLHLDHAGCLEMFTNATIIVHEDEFNGALQCYARNQKEGAYIWADIDAWIKNNLQWRTVKRHEDNILLAEGVKVLNFGSGHAWGMLGLHVELPETGGIILASDAIYTAESYGPPIKPPGMIYDSLGYMNTVERIRRIAQETKSQVWFGHDAEQFKKFRKSTEGYYE
notes: as for B1
B6: GcL (Parageobacillus caldoxylosilyticus NBRC 107762; A156G) (protein)
chain: MANVIKARPKLYVMDNGRMRMDKNWMIAMHNPATIHNPNAQTEFVEFPIYTVLIDHPEGKILFDTSCNPNSMGPQGRWAESTQQMFPWTATEECYLHNRLEQLKVRPEDIRYVVASHLHLDHAGCLEMFTNATIIVHEDEFNGALQCYARNQKEGGYIWADIDAWIKNNLQWRTVKRHEDNILLAEGVKVLNFGSGHAWGMLGLHVELPETGGIILASDAIYTAESYGPPIKPPGIIYDSLGYMNTVERIRRIAQETKSQVWFGHDAEQFKKFRKSTEGYYE
notes: as for B1

Experiments:
[1] = molecular target: T1, GcL (Parageobacillus caldoxylosilyticus, UniProt A0A023DFE8, A156S); assay: 4-nitrophenolate release at […] nm; format: biochemical; settings: 50 mM HEPES pH 8.0 (methods; table note pH 8.3), 150 mM NaCl, CoCl2, 25 °C
T1 construct: gene GCA01S_030_00190; expressed in E. coli BL21(DE3)-pGro7/GroEL with CoCl2; bimetallic Fe/Co centre; dimer

[2] = substrate: CCCC(=O)N[C@H]1CCOC1=O; assay: purified protein; format: biochemical, Parageobacillus caldoxylosilyticus; settings: pH 8.3, 25 °C, 2.5 mM bicine, 150 mM NaCl, 0.2 mM CoCl2
[3] = substrate: CCCCCC(=O)N[C@H]1CCOC1=O; assay: purified protein; format: biochemical, Parageobacillus caldoxylosilyticus; settings: pH 8.3, 25 °C, 2.5 mM bicine, 150 mM NaCl, 0.2 mM CoCl2
[4] = substrate: CCCCCCCC(=O)N[C@H]1CCOC1=O; assay: purified protein; format: biochemical, Parageobacillus caldoxylosilyticus; settings: pH 8.3, 25 °C, 2.5 mM bicine, 150 mM NaCl, 0.2 mM CoCl2

Row | Molecule | Km [1] [µM] | Km [2] [µM] | kcat [2] [s⁻¹] | kcat/Km [2] [M⁻¹ s⁻¹] | Km [3] [µM] | kcat [3] [s⁻¹] | kcat/Km [3] [M⁻¹ s⁻¹] | Km [4] [µM] | kcat [4] [s⁻¹] | kcat/Km [4] [M⁻¹ s⁻¹]
1 | CCOP(=O)(OCC)Oc1ccc([N+](=O)[O-])cc1 [Paraoxon, paraoxon ethyl] | 964 ± 136 | – | – | – | – | – | – | – | – | –
2 | B1 | – | 758 ± 275 | 0.79 ± 0.15 | 1040 ± 430 | 92.7 ± 36.7 | 5.01 ± 0.46 | 54100 ± 21900 | – | – | –
3 | B2 | – | 475 ± 103 | 24.9 ± 2.52 | 52400 ± 12500 | – | – | – | – | – | –
4 | B3 | – | – | – | – | 563 ± 150 | 2.44 ± 0.31 | 4340 ± 1280 | 8.22 ± 2.92 | 1.44 ± 0.09 | 175000 ± 63000
5 | B4 | – | 41.0 ± 9.14 | 1.74 ± 0.1 | 42500 ± 9800 | 13.0 ± 6.16 | 2.6 ± 0.24 | 200000 ± 96000 | – | – | –
6 | B5 | – | – | – | – | 2.38 ± 0.68 | 0.95 ± 0.04 | 399000 ± 115000 | – | – | –
7 | B6 | – | – | – | – | – | – | – | 19.34 ± 3.28 | 7.97 ± 0.33 | 412000 ± 72000
